This is an account of results in paper PMC13399020 (The FASEB Journal, 2026).

Several values for one entry are separate records, joined by “and”; a condition that tells them apart may be missing. Equal entries are not always repeated.

B4: phenylalanine hydroxylase, wild type (PAH-WT), full-length (enzyme, human, UniProt P00439 1-452, looked up)
chain: MSTAVLENPGLGRKLSDFGQETSYIEDNCNQNGAISLIFSLKEEVGALAKVLRLFEENDVNLTHIESRPSRLKKDEYEFFTHLDKRSLPALTNIIKILRHDIGATVHELSRDKKKDTVPWFPRTIQELDRFANQILSYGAELDADHPGFKDPVYRARRKQFADIAYNYRHGQPIPRVEYMEEEKKTWGTVFKTLKSLYKTHACYEYNHIFPLLEKYCGFHEDNIPQLEDVSQFLQTCTGFRLRPVAGLLSSRDFLGGLAFRVFHCTQYIRHGSKPMYTPEPDICHELLGHVPLFSDRSFAQFSQEIGLASLGAPDEYIEKLATIYWFTVEFGLCKQGDSIKAYGAGLLSSFGELQYCLSEKPKLLPLELEKTAIQNYTVTEFQPLYYVAESFNDAKEKVRNFAATIPRPFSVRYDPYTQRIEVLDNTQQLKILADSINSEIGILCSALQKIK
modifications: biotin (EZ-Link NHS-PEG4-Biotin) in the BLI experiments only
notes: phenylalanine hydroxylase (PAH), human, wild type; RD residues 1-110, CD 111-410, OD 411-452; Homotetramer; a minor octamer is also seen; also called full-length PAH

For data set [1], the target named is T1, DNAJC12, wild type, full-length (human, UniProt Q9UKB3 1-198).
T1 construct: J-domain 14-76, linker-helix 87-100, CTD 176-198; also called DNAJC12-WT
The experiment in a line: BLI; without L-Phe; biotinylated PAH or TH on streptavidin biosensors, DNAJC12 0.01-4 μM in solution; 25°C, PBS, 0.02% Tween-20, 0.5 mg/mL BSA; responses against concentration fitted to a one-site hyperbola. The note with it: both partners purified. In general terms: Biolayer interferometry detects binding as a change in optical thickness at a sensor tip.

In data set [2] the target is B4. The data set is described as follows: differential scanning fluorimetry; thermal unfolding of PAH (1.92 μM) with SYPRO Orange at increasing DNAJC12(176-198) peptide (0-16 μM); Tm1 followed. The note with it: both partners purified. Background: In DSF a fluorescence change marks the thermal transition of the protein.
Data set [3] deals with T1, DNAJC12, wild type, full-length. The experiment in a line: SEC; with 1 mM L-Phe in sample and running buffer; 20 μM (subunit) PAH, PAH variant or MBP-PAH construct with 20-40 μM DNAJC12 or truncated DNAJC12; Superdex 200 Increase, 4°C, 20 mM Na-Hepes pH 7.0, 200 mM NaCl; complex fraction also checked by SDS-PAGE. The note with it: both partners purified.
Data set [4] concerns the molecule itself. The data set is described as follows: SEC-MALS; MBP-PAH(RD) (4 mg/mL) alone or with DNAJC12 (4 mg/mL); Superdex 200 Increase, 20 mM Na-Hepes pH 7.0, 200 mM NaCl, 1 mM L-Phe. On the technique in general: In gel filtration, larger molecules generally elute earlier.
The target in data set [5] is T1, DNAJC12, wild type, full-length. The data set is described as follows: BLI; with 1 mM L-Phe; biotinylated PAH on streptavidin biosensors, DNAJC12 0.01-4 μM in solution; 25°C, PBS, 0.02% Tween-20, 0.5 mg/mL BSA; responses against concentration fitted to a one-site hyperbola. The note with it: both partners purified.
Data set [6] concerns the molecule itself. The experiment in a line: SEC-MALS; PAH (2 mg/mL) and pre-purified PAH:DNAJC12 complex (2 mg/mL); Superdex 200 Increase, 20 mM Na-Hepes pH 7.0, 200 mM NaCl, without L-Phe supplementation.

B1: tyrosine hydroxylase (TH) (enzyme)
chain: not shown
modifications: biotin (EZ-Link NHS-PEG4-Biotin) in the BLI experiment only
notes: tyrosine hydroxylase (TH); The methods tell neither plasmid nor purification of TH; also called unliganded TH
Turning to B1, the Kd (in general, a measure of binding affinity in units of concentration) in data set [1] turned out to be 138 ± 34 nM.

B2: C-terminal peptide DNAJC12(176-198) (peptide, UniProt Q9UKB3 176-198, looked up)
peptide: HLRFRWSKDAPSELLRKFRNYEI
notes: only its last seven residues 192-KFRNYEI-198 are printed; also called C-terminal DNAJC12 peptide; CTD peptide; source: synthetic peptide, bought: GenScript
Turning to B2, the binding result in data set [2] is “binds”.

B3: MBP-PAH(33-112) (domain or fragment, human, UniProt P00439 33-112, looked up)
chain: GAISLIFSLKEEVGALAKVLRLFEENDVNLTHIESRPSRLKKDEYEFFTHLDKRSLPALTNIIKILRHDIGATVHELSRD
notes: Derived from pMAL-c5x/PAH (GenScript); Dimer in 1 mM L-Phe by SEC-MALS; theoretical monomer 52.9 kDa with MBP; also called MBP-PAH(RD); PAH(RD); source: E. coli K12 TB1, purified
As for B3, in data set [3], the binding result was “binds”. For the same molecule, the stoichiometry N (commonly a count of units in the complex or per binding partner) in data set [4] came out at 2 subunits in the oligomer. On to B4, for which the dissociation constant Kd in data set [5] is 139 ± 19 nM; in data set [1], 508 ± 59 nM. Also, the “stoichiometry N” value in data set [6] is 8 subunits in the oligomer and 4 subunits in the oligomer.

B5: PAH-p.R261Q (enzyme, human)
chain: MSTAVLENPGLGRKLSDFGQETSYIEDNCNQNGAISLIFSLKEEVGALAKVLRLFEENDVNLTHIESRPSRLKKDEYEFFTHLDKRSLPALTNIIKILRHDIGATVHELSRDKKKDTVPWFPRTIQELDRFANQILSYGAELDADHPGFKDPVYRARRKQFADIAYNYRHGQPIPRVEYMEEEKKTWGTVFKTLKSLYKTHACYEYNHIFPLLEKYCGFHEDNIPQLEDVSQFLQTCTGFRLRPVAGLLSSRDFLGGLAFQVFHCTQYIRHGSKPMYTPEPDICHELLGHVPLFSDRSFAQFSQEIGLASLGAPDEYIEKLATIYWFTVEFGLCKQGDSIKAYGAGLLSSFGELQYCLSEKPKLLPLELEKTAIQNYTVTEFQPLYYVAESFNDAKEKVRNFAATIPRPFSVRYDPYTQRIEVLDNTQQLKILADSINSEIGILCSALQKIK
notes: phenylalanine hydroxylase (PAH), human, disease-associated variant p.R261Q; Derived from pMAL-c5x/PAH, which encodes human PAH-WT; called tetrameric in the legends; also called PKU-associated variant PAH-p.R261Q; source: E. coli K12 TB1, purified
Turning to B5, the binding result in data set [3] is recorded as “binds”.
